B1: VDR (parent)
chain: VTLELSQLSMLPHLADLVSYSIQK
B2: DLC1 (parent)
chain: RDAIEALCRRLNTLNKCAVMKLEI

Variants of: B1
Assay: protein stability index of a GFP-peptide fusion (GPS, HEK-293T) (PSI 1-6); higher = more stable
Conditions: c terminus: a fixed tail appended
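Note: lentivirally expressed fusions sorted by FACS into six bins by GFP to DsRed ratio, PSI derived from sequencing read proportions per bin multiplied by bin number.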

Protein stability index of substitutions, site by site:
S6: F 2.88 | D 2.16 | Q 2.54 | R 1.52 | N 2.58 | W 2.88 | I 2.48 | T 1.28 | C 2.65 | E 2.77 | M 2.06 | P 2.29 | V 3.64 | G 3.13 | A 2.88 | H 3.94 | L 3.3 | Y 2.27 | K 1.81
Q7: A 3.54 | C 2.21
L5: W 2.81 | A 2.12 | C 2.54 | S 1.92 | Q 2.01 | P 1.86 | D 2.1 | R 2.5 | N 1.93 | K 1.85 | V 2.65 | G 2.07 | I 3.82 | M 4.44 | T 2.04 | E 1.71 | H 2.33 | Y 3.55
V1: G 2.5 | A 1.63 | F 2.61 | S 1.99 | H 2.44 | E 1.9 | T 3 | Y 2.2 | D 2.29 | P 1.58 | W 2.08 | K 1.86 | M 2.18 | L 4.07 | R 3.03 | N 1.81 | Q 2.66
E4: V 3.1 | T 2.67 | M 3.22 | C 3.83 | Q 3.55 | G 2.6 | R 3.12 | N 2.66 | Y 2.58 | D 3.44 | F 2.88 | A 2.69 | L 4.64 | I 3.27 | K 3.75 | H 2.02 | P 3.67
L3: R 1.53 | Q 1.96 | P 2.49 | F 1.95 | C 1.99 | A 2.21 | E 1.84 | N 1.5 | M 3.15 | S 1.5 | G 2.67 | T 1.97 | D 2.09 | K 1.16 | H 1.6 | V 2.45 | Y 2.81 | I 2.53 | W 4.09
T2: P 1.42 | V 3.63 | I 4.5 | L 1.75 | H 2.06 | G 1.76 | Q 2.22 | F 3.02 | K 2.4 | D 1.6 | N 3.11 | C 4.12 | W 2.48 | M 2.16 | E 2.22 | R 4.52 | S 3.12

Variants of: B2
Assay: as above
Conditions: c terminus: a fixed tail appended

Protein stability index: each site, then its substitutions
R9: G 1.83 | T 2.37 | F 2.45 | E 4.07 | Q 4.01 | S 4.18 | L 1.63 | K 1.69 | H 3.54 | V 2.69 | I 1.79 | N 3.68
K21: N 1.61 | I 2.1 | Y 2.5 | S 1.73 | M 1.69 | R 2.88 | L 2.53 | P 1.33 | Q 4.24 | C 1.39 | T 2.06 | G 1.97 | E 1.73 | A 2.6
L11: T 2.52 | E 1.84 | W 2.05 | C 3.62 | K 2.96 | F 2.72 | H 1.6 | P 2.84 | S 3.62 | D 3.27 | Y 2.67 | N 2.33 | R 1.89 | Q 2.56
L14: P 2.09 | I 4.47 | D 1.37 | V 2.93 | E 2.98 | W 2.22 | A 1.68 | C 2.35 | Q 2.24 | K 1.88 | S 3.43 | Y 3.26 | H 2.74 | M 1.49
I24: L 2.75 | Y 1.29 | D 1.52 | H 1.73 | F 2.04 | A 1.18 | S 1.91 | G 1.13 | T 2.21 | K 1.87 | R 1.5 | N 1.63 | M 2.39 | C 3.03 | E 1.36 | P 1.71 | Q 1.75 | V 2.45 | W 1.66
A18: W 2.66 | R 1.07 | H 2.23 | E 2.7 | D 2.78 | F 4.02 | Y 3.01 | I 3.66 | V 3.7 | P 1.82 | L 2.58 | Q 2.02 | C 2.83
T13: H 2.02 | L 2.33 | N 2.28 | S 2.09 | K 1.55 | C 2.26 | Y 2.79 | E 1.7 | R 2.35 | I 2.04
M20: N 1.88 | C 2.27 | P 2.02 | F 3.51 | S 2.64 | K 1.49 | A 1.01 | D 1.67 | H 3.39 | Q 1.45 | T 2.35 | E 1.49 | R 1.27 | G 1.85
C17: I 3.57 | D 3.14 | V 4.14 | L 2.35 | S 2.17 | N 1.83 | A 1.16 | Y 3.7 | M 1.63 | R 1.78 | K 2.36 | T 3.57 | H 4.06 | P 1.07 | Q 1.42 | E 2
V19: Q 1.84 | H 3.85 | G 1.6 | T 1.04 | F 1.62 | N 1.89 | A 3.74 | D 2.58 | L 3.2 | Y 2.76 | I 1.67 | W 3.62
N15: E 1.44 | Q 5.09 | T 1.98 | F 3.09 | V 3.72 | I 3.36 | P 1.75 | Y 1.24 | D 3.27 | K 2.63 | H 2.39 | L 3.76 | G 2.33 | A 3.2
L22: I 1.89 | T 2.54 | D 1.5 | G 1.5 | M 3.06 | H 1.44 | Y 2.29 | S 1.45 | P 1.43 | K 1.91 | N 1.54 | Q 2.59 | C 2.69 | E 1.93
N12: Q 1.45 | R 1.79 | V 2.37 | P 2.26 | S 1.77 | Y 3.36 | F 2.97 | L 2.99 | M 1.84 | H 2.28 | E 1.84 | T 2.2 | A 1.09 | C 3.35 | D 4.53 | K 2.79
E23: I 1.47 | Q 4.6 | Y 1.36 | K 2.65 | D 1.52 | N 3.12 | G 2.23 | C 2.07 | F 2.3 | P 2.27 | W 3.37 | A 2.38 | H 2.39
R10: F 1.86 | A 2.67 | W 2.52 | N 4.43 | P 2.71 | Q 3.82 | L 2.43 | M 3.3 | I 4.62 | K 3.44 | S 3.43 | V 1.86 | Y 2.21 | T 3.17 | C 3.31 | H 3.54
K16: I 1.93 | C 2.44 | T 2.71 | F 3.89 | M 2.58 | V 2.29 | G 3.19 | A 2.39 | D 1.76 | W 2.25 | L 1.48 | Q 3.29 | E 2.45 | N 2.96

— the supplement of paper PMC10567573
